Measured values from paper PMC7891180, “Exploring the Role of a Cytokinin-Activating Enzyme LONELY GUY in Unicellular Microalga Chlorella variabilis” (Frontiers in Plant Science, 2021).

Key:
purified protein [1] = substrate: C/C(=C\CNc1ncnc2c1ncn2[C@@H]1O[C@H](COP(=O)(O)O)[C@@H](O)[C@H]1O)CO; assay: purified protein; assay type: biochemical, Chlorella variabilis; details: 50 mM Tris, 1 mM MgCl2, 1 mM DTT, pH 7, 30 °C
purified protein [2] = substrate: CC(C)=CCNc1ncnc2c1ncn2[C@@H]1O[C@H](COP(=O)(O)O)[C@@H](O)[C@H]1O; assay: purified protein; assay type: biochemical, Chlorella variabilis; details: 50 mM Tris, 1 mM MgCl2, 1 mM DTT, pH 7, 30 °C

B1: CvarLOG1 (Chlorella variabilis) (protein)
chain: MADSQPASFRKIAVFCGASSGSNPLYIEAARLLGAEMARRGIGLVYGGGNVGLMGAVAEAVGSRLGPDQVIGVIPAALEPREISGTTVGEIRVVGSMHERKAMMFEEADAFIMIPGGYGTLDETLEITTWQQLGFHTKPVGLLNINGFFNKLLAFLDHATQEGFIRPSSRAILVSGDTPGELIDTLAAYQAPPSLLRLASEGKLGVHERG
notes: native protein 211 residues
Km (purified protein [1]): 133.5 µM | Km (purified protein [2]): 54.99 µM
